# Numbering of substitutions follows the chain as printed.
# T1: baculovirus-produced soluble human ICAM-R (Homo sapiens, UniProt P32942)
# T1 sequence (P32942 30-485 limits assumed): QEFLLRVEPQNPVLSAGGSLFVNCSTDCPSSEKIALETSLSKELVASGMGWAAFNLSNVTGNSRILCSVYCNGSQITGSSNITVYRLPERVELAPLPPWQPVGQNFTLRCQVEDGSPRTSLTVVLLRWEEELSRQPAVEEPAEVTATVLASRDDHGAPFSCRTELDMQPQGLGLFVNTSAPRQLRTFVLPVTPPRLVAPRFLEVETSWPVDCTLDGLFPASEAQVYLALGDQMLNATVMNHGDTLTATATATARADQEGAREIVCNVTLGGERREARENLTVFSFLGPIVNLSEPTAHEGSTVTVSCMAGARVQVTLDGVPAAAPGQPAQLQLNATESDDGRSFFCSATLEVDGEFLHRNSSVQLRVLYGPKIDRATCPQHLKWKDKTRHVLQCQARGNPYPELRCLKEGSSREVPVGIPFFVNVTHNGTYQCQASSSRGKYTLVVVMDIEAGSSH
# B1: haFL: HA-tagged full length ICAM-R expressed in J77.50.3 cells (protein, UniProt P32942 1-547, looked up)
# chain: MATMVPSVLWPRACWTLLVCCLLTPGVQGQEFLLRVEPQNPVLSAGGSLFVNCSTDCPSSEKIALETSLSKELVASGMGWAAFNLSNVTGNSRILCSVYCNGSQITGSSNITVYRLPERVELAPLPPWQPVGQNFTLRCQVEDGSPRTSLTVVLLRWEEELSRQPAVEEPAEVTATVLASRDDHGAPFSCRTELDMQPQGLGLFVNTSAPRQLRTFVLPVTPPRLVAPRFLEVETSWPVDCTLDGLFPASEAQVYLALGDQMLNATVMNHGDTLTATATATARADQEGAREIVCNVTLGGERREARENLTVFSFLGPIVNLSEPTAHEGSTVTVSCMAGARVQVTLDGVPAAAPGQPAQLQLNATESDDGRSFFCSATLEVDGEFLHRNSSVQLRVLYGPKIDRATCPQHLKWKDKTRHVLQCQARGNPYPELRCLKEGSSREVPVGIPFFVNVTHNGTYQCQASSSRGKYTLVVVMDIEAGSSHFVPVFVAVLLTLGVVTIVLALMYVFREHQRSGSYHVREESTYLPLTSMQPTEAMGEEPSRAE
# modifications: full-length HA tag
# notes: HA-tagged full length ICAM-R expressed in J77.50.3 cells
# B2: Tyr479Phe: ICAM-R cytoplasmic domain point mutant (protein, UniProt P32942 30-547, looked up, variant Y479F)
# Intercellular adhesion …: QEFLLRVEPQNPVLSAGGSLFVNCSTDCPSSEKIALETSLSKELVASGMGWAAFNLSNVTGNSRILCSVYCNGSQITGSSNITVYRLPERVELAPLPPWQPVGQNFTLRCQVEDGSPRTSLTVVLLRWEEELSRQPAVEEPAEVTATVLASRDDHGAPFSCRTELDMQPQGLGLFVNTSAPRQLRTFVLPVTPPRLVAPRFLEVETSWPVDCTLDGLFPASEAQVYLALGDQMLNATVMNHGDTLTATATATARADQEGAREIVCNVTLGGERREARENLTVFSFLGPIVNLSEPTAHEGSTVTVSCMAGARVQVTLDGVPAAAPGQPAQLQLNATESDDGRSFFCSATLEVDGEFLHRNSSVQLRVLYGPKIDRATCPQHLKWKDKTRHVLQCQARGNPYPELRCLKEGSSREVPVGIPFFVNVTHNGTYQCQASSSRGKYTLVVVMDIEAGSSHFVPVFVAVLLTLGVVTIVLALMFVFREHQRSGSYHVREESTYLPLTSMQPTEAMGEEPSRAE
# B3: Tyr498Phe: ICAM-R cytoplasmic domain point mutant (protein, UniProt P32942 30-547, looked up, variant Y498F)
# Intercellular adhesion …: B2 Intercellular adhesion … with F479Y, Y498F
# B4: Tyr490Phe: ICAM-R cytoplasmic domain point mutant (protein, UniProt P32942 30-547, looked up, variant Y490F)
# Intercellular adhesion …: B2 Intercellular adhesion … with F479Y, Y490F
# B5: Ser496Ala: ICAM-R cytoplasmic domain point mutant (protein, UniProt P32942 30-547, looked up, variant S496A)
# Intercellular adhesion …: B2 Intercellular adhesion … with F479Y, S496A
# B6: Leu499Ala: ICAM-R cytoplasmic domain point mutant (protein, UniProt P32942 30-547, looked up, variant L499A)
# Intercellular adhesion …: B2 Intercellular adhesion … with F479Y, L499A
# B7: Ser487Ala: ICAM-R cytoplasmic domain point mutant (protein, UniProt P32942 30-547, looked up, variant S487A)
# Intercellular adhesion …: B2 Intercellular adhesion … with F479Y, S487A
# B8: Ser489Ala: ICAM-R cytoplasmic domain point mutant (protein, UniProt P32942 30-547, looked up, variant S489A)
# Intercellular adhesion …: B2 Intercellular adhesion … with F479Y, S489A
# B9: Ser503Ala: ICAM-R cytoplasmic domain point mutant (protein, UniProt P32942 30-547, looked up, variant S503A)
# Intercellular adhesion …: B2 Intercellular adhesion … with F479Y, S503A
# B10: Ser515Ala: ICAM-R cytoplasmic domain point mutant (protein, UniProt P32942 30-547, looked up, variant S515A)
# Intercellular adhesion …: B2 Intercellular adhesion … with F479Y, S515A
# B11: MuVHVS/MuVK: chimeric ICR-8.1: murine VH with Val2, Ser7 and murine VK, human IgG4/kappa constant regions (antibody, V domains shown)
# VH: EVQLQQSGPELVKPGASVKISCKASGYSFTDCIILWVKQSHGKGLEWIGKINPYFGTTTYNLKFKGKATLTVDKSSSTAHMQLNSLTSEDSAVYYCARKEAYPDAMDYWGQGTSVTVSS
# VL: DAVMTQTPLSLPVSLGDQASISCRSSQSLVHSNGDTYLHWYLQKPGQSPQLLIYKVSNRFSGVPDRFSGSGSGTDFTLKLSRVEAEDLGVYFCSQSTHVPYTFGGGTKLEIK
# System: J77.50.3 cell lines
# Experiment: ICR-1.1 induced aggregation of J77.50.3 lines
# Type: cell-based, human
# Conditions: ICR-1.1 10 μg/ml; 1 and 24 hours
# Description: One of these monoclonal antibodies (ICR-1.1) was used to induce aggregation of the J77.50.3 cell lines expressing either full length ICAM-R (haFL) or carboxy terminal variants of ICAM-R. ICR-1.1 was added to 200,000 cells at 10 μg/ml in 96 well plates and incubated 37° C. At 1 and 24 hours after incubation the wells were visually screened for aggregates.
row,Molecule,ICR-1.1 induced aggregation
1,B1,aggregation competent
2,B2,aggregation competent
3,B3,aggregation competent
4,B4,incapable of forming inducible aggregates
5,B5,Neither ICAM-R mutation affected
6,B6,Neither ICAM-R mutation affected

# Same assay, conditions: repeated experiments; Vector 17
row,Molecule,Percent Aggregation [%]
1,B1,55
2,B7,61
3,B8,25
4,B9,64
5,B5,60
6,B10,15
7,B6,60

# System: J77.50.3 cell lines
# Experiment: Cell spreading on ICR-1.1 coated plastic
# Type: cell-based, human
# Conditions: 20 minutes at 37° C.
# Description: To ascertain additional functional consequences of ICAM-R carboxyl terminal deletions, the Jurkat cell lines expressing the. ICAM-R variants described above were tested for the ability to adhere and spread on antibody coated plastic or to undergo antibody-mediated aggregation. Bacterial petri plates were coated with 50 μl drops of ICR-1.1 or w6/32 (10 μg/ml) (anti-MHC class I isotype matched control monoclonal antibody) in PBS for 120 minutes at 37° C. The plastic was rinsed twice prior to spotting 50 μl drops of J77.50.3 cell lines. Duplicate cell lines expressing these proteins at equivalent levels were tested. After 20 minutes at 37° C. the plate was flooded with 2% glutaraldehyde in PBS and incubated for 30 minutes to fix adherent cells. Fixed cells were rinsed twice with PBS and scored visually for the ability to flatten and spread. […] Weyrich et al., J. Clin. Invest., 95: 2297-2303 (1995) recently described the effect of a ICR-1.1 coated plastic surface on normal monocytes from peripheral blood. After two hours, these cells flattened down and spread with a similar overall morphology to that seen with the haFL expressing J77.50.3 cell line.
row,Molecule,spreading on ICR-1.1 coated plastic
1,B1,spread onto the ICR-1.1 coated plastic surface
2,B2,spread onto the ICR-1.1 coated plastic surface
3,B3,spread onto the ICR-1.1 coated plastic surface
4,B4,incapable of flattening down onto the ICR-1.1 coated surface
5,B5,Neither ICAM-R mutation affected
6,B6,Neither ICAM-R mutation affected

# Target: T1, baculovirus-produced soluble human ICAM-R
# Experiment: ELISA binding of recombinant ICR-8.1 antibodies
# Conditions: humanized/chimeric ICR-8.1 chain combinations, human IgG4/kappa
row,"binding to ICAM-R (ELISA), recombinant ICR-8.1 antibodies",Molecule
1,equivalence in binding to ICAM-R,B11

# System: J77.50.3 cells
# Experiment: IL-2 induction in J77.50.3 lines expressing ICAM-R variants
# Type: cell-based, human
# Conditions: repeated experiments; Vector 0.52
# Description: This dose of antibody alone provides minimal signalling for IL-2 release. The OKT3 treatment was removed and replaced with buffer alone or anti-ICAM-R (ICR-1.1) (10 ug/ml in PBS-D) and incubated at 37° C. for at least 2 hours. Monoclonal antibody coating was done in replicates of two or more wells and pooled to provide sufficient quantities of conditioned media for ELISA and/or bioassay. Two hundred fifty thousand Jurkat cells or transfectants thereof, were placed into antibody coated wells or buffer coated negative control wells in 0.1 ml of RPMI complete medium. Following incubation of about 16-24 hrs at 37° C. in a humidified atmosphere containing 5% CO2, the medium was transferred to a fresh 96 well round bottom plate, spun to pellet cells carried over and transferred to a fresh plate. Samples were frozen and stored at −70° C. IL-2 ELISAs were performed using commercially available kits (Biosource Intl. Co., Carmarille, Calif.) by making serial dilutions of the samples.
# Experiments were performed using two independently isolated cell lines for each plasmid construct or the vector alone. Stable lines expressing similar levels of ICAM-R variants, as determined by indirect flow cytometry, were chosen for functional studies. Cells were costimulated with plate immobilized monoclonal antibodies ICR-1.1 and OKT3, and IL-2 release from the lines was quantitated by ELISA as previously described in Example 25C. Results were expressed as fold increase of IL-2 released from cells plated onto co-immobilized ICR-1.1 (10 μg/ml) plus OKt3 (1 μg/ml) divided by release from OKT3 ([…]) alone. The full length ICAM-R protein (haFL) gave 3.1 fold induction. The deletions gave the following fold inductions: haCTΔ505 induction was 1.5 fold, haCTΔ493 induction was 1.3 fold, haCTΔ484 was 0.8 fold. Vector control induction was 0.7 fold. […] In addition, removal of the residues 505-518 leads to the most significant reduction in co-stimulatory responsiveness. This implies that residues 505-518 play a relatively larger role in the response as compared to residues 484-505.
row,Molecule,IL-2 Induction (Fold Stimulation)
1,B1,5.4 Fold
2,B2,4.9 Fold
3,B3,1.6 Fold
4,B7,2.0 Fold
5,B8,2.9 Fold
6,B4,1.8 Fold
7,B9,1.0 Fold
8,B5,˜6 Fold
9,B10,2.1 Fold
10,B6,˜6 Fold

# Same assay, conditions: vector control 0.7 fold
row,Molecule,fold increase of IL-2 released (ICR-1.1 plus OKT3 divided by OKT3 alone)
1,B1,3.1 fold
2,B5,Neither ICAM-R mutation affected IL-2 secretion
3,B6,Neither ICAM-R mutation affected IL-2 secretion
